Blank lines part the entries; values can stand above or below the binder they belong to.
How the values were obtained:
[1] = target: T1, mouse IL-22BP-His (mouse, UniProt Q80XF5 21-230); assay: direct ELISA on coated mouse IL-22BP-His
T1 chain: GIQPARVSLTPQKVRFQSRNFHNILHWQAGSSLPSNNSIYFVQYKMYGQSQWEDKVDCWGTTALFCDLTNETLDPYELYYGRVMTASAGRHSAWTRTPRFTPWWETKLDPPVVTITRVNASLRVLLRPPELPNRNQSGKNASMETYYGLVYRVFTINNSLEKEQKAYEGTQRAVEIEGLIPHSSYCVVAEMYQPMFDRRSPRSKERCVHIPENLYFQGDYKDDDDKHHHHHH

[2] = target: T2, human IL-22BP (Isoform 2)-His (human, UniProt Q969J5 22-263); assay: direct ELISA on coated human IL-22BP-His, purified rat antibody
T2 construct: Expressed in FreeStyle 293F cells and purified from the culture supernatant; also called human IL-22BP-His
T2 sequence: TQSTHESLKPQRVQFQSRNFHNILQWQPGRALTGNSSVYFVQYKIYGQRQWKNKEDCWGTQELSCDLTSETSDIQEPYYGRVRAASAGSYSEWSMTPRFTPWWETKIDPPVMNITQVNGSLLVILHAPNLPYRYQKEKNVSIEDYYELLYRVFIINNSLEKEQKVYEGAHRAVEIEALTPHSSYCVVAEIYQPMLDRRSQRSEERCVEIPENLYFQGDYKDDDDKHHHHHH

[3] = target: T3, monkey IL-22BP-His (monkey); assay: direct ELISA on coated monkey IL-22BP-His, purified rat antibody
T3 chain: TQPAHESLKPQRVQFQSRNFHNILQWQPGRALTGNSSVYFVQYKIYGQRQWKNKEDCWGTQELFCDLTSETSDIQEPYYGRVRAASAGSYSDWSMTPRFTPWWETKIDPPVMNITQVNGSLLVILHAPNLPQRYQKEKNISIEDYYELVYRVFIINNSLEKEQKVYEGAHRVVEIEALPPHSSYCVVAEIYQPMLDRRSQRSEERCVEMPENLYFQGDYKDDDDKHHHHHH

[4] = target: T2, human IL-22BP (Isoform 2)-His; assay: competition ELISA on captured human IL-22BP-His, IL-22 as competitor; weaker inhibitory tendency than cMAb3 and the hMAb3 antibodies
[5] = target: T1, mouse IL-22BP-His; assay: direct ELISA on coated mouse IL-22BP-His, purified rat antibody
[6] = target: T2, human IL-22BP (Isoform 2)-His; assay: direct ELISA screen on coated human IL-22BP-His, then competition ELISA with IL-22; hybridoma supernatant
[7] = target: T2, human IL-22BP (Isoform 2)-His; assay: competition ELISA on captured human IL-22BP-His, IL-22 as competitor; stronger inhibitory tendency than cMAb4 and the hMAb4 antibodies

- binding result [1]: no binding
- binding result [2]: binds
- binding result [3]: binds
B1: rat anti-human IL-22BP antibody rMAb20 (antibody, rat IgG1, V domains shown)
VH: QVQLKESGPGLVQPSQTLSLACTVSGFSLTTYHVHWVRQPSGEGLEWMGVIWTGGSTEYNSALKPRLSISRDTSKSQVFLKMNVLQTEDTATYYCARESRGRRIFDYWGQGVMVTVSS
VL: DIQMTQSPSVLSASVGDRVTLNCKASQNINKYLNWYQQKLGEAPKLLIYNTNNLQTGIPSRFSGSGSGTDYTLTISSLQPEDFGTYFCFHHNSWPLTFGSGTKLEIKR
notes: Rat IgG1, kappa chain, from hybridoma

- binding result [7]: binds
B11: humanized anti-human IL-22BP antibody hMAb3_H04L03 (antibody, human IgG1, kappa, V domains shown)
VH: EVQLVQSGAEVKKPGASVKVSCKLSGGTISAYFIHFVRQAPGQGLEWMGRIDPEDDSTEYAQKFQGRVTLTADTSTNTAYLELSSLRSEDTAVYFCTTGSDYWGQGTLVTVSS
VL: DVVMTQTPVSLPVTLGQPASISCKSSQSLLGTSGKTFLNWIQQRPGQSPKRLIYQVSKLYSGVPDRFSGSGSGTDFTLKISRVEAEDVGVYYCWQGTLFPRTFGGGTKVEIKR
notes: Human IgG1 / kappa

- binding result [1]: no binding
- binding result [2]: binds
- binding result [3]: binds
B12: rat anti-human IL-22BP antibody rMAb81 (antibody, rat IgG1, V domains shown)
VH: EVQLVESGGGLVQPGRSLKLSCLASGFTFSNYGMNWIRQAPGKGLEWVATISSGSSYIYYADTVKGRFTISRENARNTLYLQMTSLRSEDTAFYYCARPLTGAFDYWGQGVMVTVSS
VL: DIVLTQSPALAASLGQRATISCRASQSVSTSSHNLMHWYQQKPGHQPKLLIYAASNLASSIPARFSGSGSGTDFTLTINPVQADDIATYYCQQSRELPLTFGSGTKLEIKR
notes: as for B1

- binding result [6]: binds
- binding result [1]: no binding
- binding result [3]: binds
B13: rat anti-human IL-22BP antibody rMAb4 (antibody, rat IgG1, V domains shown)
VH: EVQLVESGGGLVQPGRSLKLSCAASGFTYSNYVMAWVRQAPTKGLEWVASISTGGGNTSYRDSVKGRFTISRDNAKNTLYLQMDSLRSEDTATYYCANVSPTEGMDYWGQGVMVTVSS
VL: DIVMTQGALPNPVPSGESVSITCRSSKSLLYSNGKTYLNWYLQRPGQSPQLLIYWMSTRASGVSDRFSGGGSGTDFTLKISGVEAEDVGVYYCQQGLELPLTFGSGTKLEIKR
notes: as for B1

- binding result [4]: binds
B14: human chimeric anti-human IL-22BP antibody cMAb4 (antibody, human IgG1, kappa, V domains shown)
VH: EVQLVESGGGLVQPGRSLKLSCAASGFTYSNYVMAWVRQAPTKGLEWVASISTGGGNTAYRDSVKGRFTISRDNAKNTLYLQMDSLRSEDTATYYCARVSPTEGMDYWGQGVMVTVSS
VL: DIVMTQGALPNPVPSGESVSITCRSSKSLLYSNGKTYLNWYLQRPGQSPQLLIYWMSTRASGVSDRFSGGGSGTDFTLKISGVEAEDVGVYYCQQGLELPLTFGSGTKLEIKR
notes: Rat variable regions on human IgG1 / kappa constant regions

Continued, binder first:

B2: humanized anti-human IL-22BP antibody hMAb4_H03L01 (antibody, human IgG1, kappa, V domains shown)
VH: EVQLVESGGGLVQPGGSLRLSCAASGFTYSNYVMAWVRQAPGKGLEWVASISTGGGNTAYRDSVKGRFTISRDNSKNTLYLQMNSLRAEDTAVYYCARVSPTEGMDYWGQGTLVTVSS
VL: DIVMTQGPLSLPVTPGEPASISCRSSKSLLYSNGKTYLNWYLQKPGQSPQLLIYWMSTRASGVPDRFSGGGSGTDFTLKISRVEAEDVGVYYCQQGLELPLTFGQGTKVEIKR
notes: Human IgG1 / kappa
- binding result [4]: binds

B3: humanized anti-human IL-22BP antibody hMAb4_H03L03 (antibody, human IgG1, kappa, V domains shown)
VH: EVQLVESGGGLVQPGGSLRLSCAASGFTYSNYVMAWVRQAPGKGLEWVASISTGGGNTAYRDSVKGRFTISRDNSKNTLYLQMNSLRAEDTAVYYCARVSPTEGMDYWGQGTLVTVSS
VL: DIVMTQGPDSLAVSLGERATITCRSSKSLLYSNGKTYLNWYQQKPGQPPKLLIYWMSTRASGVPDRFSGGGSGTDFTLTISSLQAEDVAVYYCQQGLELPLTFGQGTKVEIKR
notes: Human IgG1 / kappa
- binding result [4]: binds

B4: humanized anti-human IL-22BP antibody hMAb4_H02L05 (antibody, human IgG1, kappa, V domains shown)
VH: EVQLVESGGGLVQPGGSLRLSCAASGFTYSNYVMAWVRQAPGKGLEWVSSISTGGGNTAYRDSVKGRFTISRDNSKNTLYLQMNSLRAEDTAVYYCARVSPTEGMDYWGQGTLVTVSS
VL: DIQMTQSPSSLSASVGDRVTITCRSSKSLLYSNGKTYLNWYQQKPGKSPKLLIYWMSTRASGVPDRFSGGGSGTDFTLTISSLQPEDFATYYCQQGLELPLTFGQGTKVEIKR
notes: Human IgG1 / kappa
- binding result [4]: binds

B5: rat anti-human IL-22BP antibody rMAb8 (antibody, rat IgG2a, V domains shown)
VH: QVQLKESGPGLVQPSQTLSLTCTVSGFSLSSYTVSWVRQPPGKGLDWIAAISSGGSTYYNSALKSRLTISRDTSKSQVFLKMNSLQTEDTAMYFCARSTGDYWGQGVMVTVSS
VL: DIQMTQSPSLLSASVGDRVTLNCKASQSIYKNLAWYQQKLGEAPKLLIYSAKSLQTGTPSRFSGSGSGTDFTLTISSLQPEDVATYFCHQYYSGWTFGGGTKLELKR
notes: Rat IgG2a, kappa chain, from hybridoma
- binding result [2]: binds
- binding result [5]: binds
- binding result [3]: binds

B6: rat anti-human IL-22BP antibody rMAb14 (antibody, rat IgG1, V domains shown)
VH: QVQLKESGPGLVQPSQTLSLTCTVSGFSLTSYTVSWVRQPPGKGLEWIAAISSGGSTYYNSALKSRLSISRDTSKSQVFLKMSSLQTEDAAMYFCARSTGDYWGQGVMVTVSS
VL: DIQMTQSPSLLSASVGDRVTLNCKASQNIYKNLAWYQQKLGETPRLLIYSANRLQTGIPSRFSGSGSGTDFTLTISSLQPEDVATYFCHQYYSGWTFGGGTKLELKR
notes: as for B1
- binding result [2]: binds
- binding result [5]: binds
- binding result [3]: binds

B7: rat anti-human IL-22BP antibody rMAb3 (antibody, rat IgG1, V domains shown)
VH: EVQLQQSGAELVRPGTSVKLSCKLSGGTISAYFIHFVKQRPGQGLEWIGRIDPEDDSTEYAEKFKNKATLTADTSSNTAYLILGSLTSDDTATYFCTTGSDYWGQGVMVTVSS
VL: DVVMTQTPVSLSLAIGQPASISCKSSQSLLGTSGKTFLNWILQRPGQSPKRLIYQVSKLYSGVPDRFSGSGSETEFTLKISRVEAEDLGVYYCWQGTLFPRTFGGGTKLEVKR
notes: as for B1
- binding result [6]: binds
- binding result [1]: no binding
- binding result [3]: binds

B8: human chimeric anti-human IL-22BP antibody cMAb3 (antibody, human IgG1, kappa, V domains shown)
VH: EVQLQQSGAELVRPGTSVKLSCKLSGGTISAYFIHFVKQRPGQGLEWIGRIDPEDDSTEYAEKFKNKATLTADTSSNTAYLILGSLTSDDTATYFCTTGSDYWGQGVMVTVSS
VL: DVVMTQTPVSLSLAIGQPASISCKSSQSLLGTSGKTFLNWILQRPGQSPKRLIYQVSKLYSGVPDRFSGSGSETEFTLKISRVEAEDLGVYYCWQGTLFPRTFGGGTKLEVKR
notes: as for B14
- binding result [7]: binds

B9: humanized anti-human IL-22BP antibody hMAb3_H01L03 (antibody, human IgG1, kappa, V domains shown)
VH: EVQLVQSGAEVKKPGASVKVSCKASGGTISAYFIHWVRQAPGQGLEWMGRIDPEDDSTEYAQKFQGRVTITADTSTNTAYMELSSLRSEDTAVYYCTTGSDYWGQGTLVTVSS
VL: DVVMTQTPVSLPVTLGQPASISCKSSQSLLGTSGKTFLNWIQQRPGQSPKRLIYQVSKLYSGVPDRFSGSGSGTDFTLKISRVEAEDVGVYYCWQGTLFPRTFGGGTKVEIKR
notes: Human IgG1 / kappa
- binding result [7]: binds

B10: humanized anti-human IL-22BP antibody hMAb3_H01L04 (antibody, human IgG1, kappa, V domains shown)
VH: EVQLVQSGAEVKKPGASVKVSCKASGGTISAYFIHWVRQAPGQGLEWMGRIDPEDDSTEYAQKFQGRVTITADTSTNTAYMELSSLRSEDTAVYYCTTGSDYWGQGTLVTVSS
VL: DVVMTQSPLSLPVTLGQPASISCKSSQSLLGTSGKTFLNWIQQRPGQSPKRLIYQVSKLYSGVPDRFSGSGSGTEFTLKISRVEAEDVGVYYCWQGTLFPRTFGGGTKVEIKR
notes: Human IgG1 / kappa
- binding result [7]: binds

Reference: patent publication WO2021241730A1 (dated 2021)
